# Positions count from the first letter of the chain named.
# T1: mStau2 dsRBD1-2 F40A (Mus musculus, UniProt Q8CJ67 8-181, F40A)
# T1 sequence: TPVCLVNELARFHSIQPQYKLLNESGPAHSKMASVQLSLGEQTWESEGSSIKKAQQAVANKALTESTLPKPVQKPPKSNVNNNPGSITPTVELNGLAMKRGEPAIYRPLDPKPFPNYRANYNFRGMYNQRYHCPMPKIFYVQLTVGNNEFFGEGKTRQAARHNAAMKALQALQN
# T2: mStau2 full-length (Mus musculus, UniProt Q8CJ67 1-570)
# T2 sequence: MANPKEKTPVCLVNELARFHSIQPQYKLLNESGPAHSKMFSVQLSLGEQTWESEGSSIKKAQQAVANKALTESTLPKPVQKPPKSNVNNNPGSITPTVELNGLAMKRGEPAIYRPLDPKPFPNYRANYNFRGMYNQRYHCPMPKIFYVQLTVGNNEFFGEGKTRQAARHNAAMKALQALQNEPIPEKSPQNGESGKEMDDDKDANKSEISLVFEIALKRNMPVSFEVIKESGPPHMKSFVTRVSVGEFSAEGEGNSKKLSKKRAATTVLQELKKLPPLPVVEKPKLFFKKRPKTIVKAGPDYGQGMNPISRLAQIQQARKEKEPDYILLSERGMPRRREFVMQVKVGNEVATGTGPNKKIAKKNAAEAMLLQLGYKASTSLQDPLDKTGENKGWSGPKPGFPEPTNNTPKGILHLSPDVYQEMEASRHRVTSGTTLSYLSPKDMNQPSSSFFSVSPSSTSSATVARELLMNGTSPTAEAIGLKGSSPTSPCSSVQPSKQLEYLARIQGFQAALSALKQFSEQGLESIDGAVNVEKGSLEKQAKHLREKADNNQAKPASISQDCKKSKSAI
# T3: mStau2 dsRBD1-2 E99A (Mus musculus, UniProt Q8CJ67 8-181, E99A)
# T3 sequence: T1 sequence with A33F, E92A
# T4: mStau2 dsRBD1-2 E15A (Mus musculus, UniProt Q8CJ67 8-181, E15A)
# T4 sequence: T1 sequence with E8A, A33F
# T5: mStau2 dsRBD1-2 H36A (Mus musculus, UniProt Q8CJ67 8-181, H36A)
# T5 sequence: T1 sequence with H29A, A33F
# B1: SRS* (SRS3) (structured_RNA)
# RNA: GGUAUGUGUGAAUGUGCAUGAAUAUAUAUAUAUAUGCAUAUAUAUAUUUGUAUAUGUUCACACAUG
# B2: SRS2+5 (structured_RNA)
# RNA: GGUAUAUACAUGCACAUGCAAUUUGUGUAUGUGUAUGUAUAUA
# Legend:
# mStau2 dsRBD1-2 F40A = target: T1, mStau2 dsRBD1-2 F40A; assay: SPR; Hill n 1; SPR: HBS-EP (10 mM HEPES pH 7.4, 150 mM NaCl, 3 mM EDTA, 0.005% P20); EMSA: 5 nM RNA, protein buffer (40 mM Bis-Tris pH 7, 150 mM NaCl, 2 mM DTT presumed), 4% glycerol, 30 ug/mL yeast tRNA, RT; NMR: 150 mM NaCl, 20 mM Na phosphate pH 7.0, 5 mM DTT, 298 K; details: protein: recombinant; label: 5' 32P (EMSA); biotin (SPR); imperfect hairpin, 26 bp with two bulges
# mStau2 full-length = target: T2, mStau2 full-length; assay: EMSA; stated as 100 nM range; SPR: HBS-EP (10 mM HEPES pH 7.4, 150 mM NaCl, 3 mM EDTA, 0.005% P20); EMSA: 5 nM RNA, protein buffer (40 mM Bis-Tris pH 7, 150 mM NaCl, 2 mM DTT presumed), 4% glycerol, 30 ug/mL yeast tRNA, RT; NMR: 150 mM NaCl, 20 mM Na phosphate pH 7.0, 5 mM DTT, 298 K; details: protein: recombinant; tags: HisSUMO; label: 5' 32P (EMSA); biotin (SPR); imperfect hairpin, 26 bp with two bulges
# mStau2 dsRBD1-2 E99A = target: T3, mStau2 dsRBD1-2 E99A; assay: SPR; Hill n 1.5; SPR: HBS-EP (10 mM HEPES pH 7.4, 150 mM NaCl, 3 mM EDTA, 0.005% P20); EMSA: 5 nM RNA, protein buffer (40 mM Bis-Tris pH 7, 150 mM NaCl, 2 mM DTT presumed), 4% glycerol, 30 ug/mL yeast tRNA, RT; NMR: 150 mM NaCl, 20 mM Na phosphate pH 7.0, 5 mM DTT, 298 K; details: protein: recombinant; label: 5' 32P (EMSA); biotin (SPR); hairpin, 18 bp stem
# mStau2 dsRBD1-2 E15A = target: T4, mStau2 dsRBD1-2 E15A; assay: SPR; Hill n 1; SPR: HBS-EP (10 mM HEPES pH 7.4, 150 mM NaCl, 3 mM EDTA, 0.005% P20); EMSA: 5 nM RNA, protein buffer (40 mM Bis-Tris pH 7, 150 mM NaCl, 2 mM DTT presumed), 4% glycerol, 30 ug/mL yeast tRNA, RT; NMR: 150 mM NaCl, 20 mM Na phosphate pH 7.0, 5 mM DTT, 298 K; details: protein: recombinant; label: 5' 32P (EMSA); biotin (SPR); hairpin, 18 bp stem
# mStau2 dsRBD1-2 H36A = target: T5, mStau2 dsRBD1-2 H36A; assay: as above; details: protein: recombinant; label: 5' 32P (EMSA); biotin (SPR); hairpin, 18 bp stem
Binder,Kd (mStau2 dsRBD1-2 F40A) [nM],Kd (mStau2 full-length) [nM],Kd (mStau2 dsRBD1-2 E99A) [nM],Kd (mStau2 dsRBD1-2 E15A) [nM],Kd (mStau2 dsRBD1-2 H36A) [nM]
B1,769 ± 427,~100,,,
B2,,,635 ± 308,132 ± 31,701 ± 386
